From publication PMC7037359

Target: Human recombinant ADAM17 (human) (UniProt P78536)
Chain of UniProt P78536 (P78536 18-824): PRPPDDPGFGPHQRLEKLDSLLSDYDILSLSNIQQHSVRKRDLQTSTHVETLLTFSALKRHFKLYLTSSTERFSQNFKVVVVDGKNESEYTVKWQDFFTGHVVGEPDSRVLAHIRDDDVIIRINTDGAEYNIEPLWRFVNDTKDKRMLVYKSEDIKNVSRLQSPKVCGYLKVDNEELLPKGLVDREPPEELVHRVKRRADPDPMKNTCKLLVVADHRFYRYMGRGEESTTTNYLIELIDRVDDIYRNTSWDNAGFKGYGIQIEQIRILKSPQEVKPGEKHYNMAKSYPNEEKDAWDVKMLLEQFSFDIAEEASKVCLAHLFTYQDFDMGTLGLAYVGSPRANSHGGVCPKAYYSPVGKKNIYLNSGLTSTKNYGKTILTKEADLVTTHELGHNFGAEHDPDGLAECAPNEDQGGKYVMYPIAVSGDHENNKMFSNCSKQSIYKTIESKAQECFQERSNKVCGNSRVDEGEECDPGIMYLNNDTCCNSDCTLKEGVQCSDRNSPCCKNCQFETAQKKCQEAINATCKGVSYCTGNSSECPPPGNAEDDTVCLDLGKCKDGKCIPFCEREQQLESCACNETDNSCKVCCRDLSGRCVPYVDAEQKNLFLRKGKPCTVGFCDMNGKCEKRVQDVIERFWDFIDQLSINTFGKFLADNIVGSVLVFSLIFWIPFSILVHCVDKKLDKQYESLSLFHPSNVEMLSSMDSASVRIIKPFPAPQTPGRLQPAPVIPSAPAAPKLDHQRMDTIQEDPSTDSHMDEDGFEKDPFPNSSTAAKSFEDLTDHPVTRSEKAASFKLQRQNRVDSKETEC

Km of the ADAM17-catalysed cleavage of the fluorogenic substrate (Lineweaver–Burk plot), control without E144: 580 µM
Km of the ADAM17-catalysed cleavage of the fluorogenic substrate (Lineweaver–Burk plot), in the presence of 5 μM E144: 20 µM
Substance: Mca-KPLGL-Dpa-AR-NH2, fluorogenic ADAM17 substrate (peptide)
